Laboratory results as given in US20200407442A1 (WUXI BIOLOGICS IRELAND, published 2020).

T1: human LAG-3-ECD.D12.mFc mutant L42A (human, UniProt P18627 37-252)
T1 construct: Alanine scanning mutant; construct limits as for m26
T1 chain: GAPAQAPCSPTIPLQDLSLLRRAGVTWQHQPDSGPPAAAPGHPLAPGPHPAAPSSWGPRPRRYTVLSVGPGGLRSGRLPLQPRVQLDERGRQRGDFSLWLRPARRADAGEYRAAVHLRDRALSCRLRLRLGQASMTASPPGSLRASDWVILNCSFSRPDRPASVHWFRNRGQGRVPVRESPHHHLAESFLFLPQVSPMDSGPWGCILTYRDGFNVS

T2: human LAG-3-ECD.D12.mFc mutant W63A (human, UniProt P18627 37-252)
T2 construct: Alanine scanning mutant; construct limits as for m26
T2 chain: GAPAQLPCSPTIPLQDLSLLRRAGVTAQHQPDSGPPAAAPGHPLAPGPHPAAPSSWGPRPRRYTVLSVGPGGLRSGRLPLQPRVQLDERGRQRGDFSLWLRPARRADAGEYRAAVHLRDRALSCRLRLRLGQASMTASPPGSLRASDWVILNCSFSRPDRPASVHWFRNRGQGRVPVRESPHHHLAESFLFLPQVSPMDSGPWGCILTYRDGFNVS

T3: human LAG-3-ECD.D12.mFc mutant H65A (human, UniProt P18627 37-252)
T3 construct: Alanine scanning mutant; construct limits as for m26
T3 chain: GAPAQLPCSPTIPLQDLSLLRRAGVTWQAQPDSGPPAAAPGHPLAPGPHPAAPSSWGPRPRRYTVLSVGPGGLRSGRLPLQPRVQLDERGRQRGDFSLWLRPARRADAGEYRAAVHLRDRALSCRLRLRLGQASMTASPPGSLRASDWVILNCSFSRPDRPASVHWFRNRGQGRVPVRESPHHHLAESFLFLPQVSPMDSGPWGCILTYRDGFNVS

T4: human LAG-3-ECD.D12.mFc mutant V101A (human, UniProt P18627 37-252)
T4 construct: Alanine scanning mutant; construct limits as for m26
T4 chain: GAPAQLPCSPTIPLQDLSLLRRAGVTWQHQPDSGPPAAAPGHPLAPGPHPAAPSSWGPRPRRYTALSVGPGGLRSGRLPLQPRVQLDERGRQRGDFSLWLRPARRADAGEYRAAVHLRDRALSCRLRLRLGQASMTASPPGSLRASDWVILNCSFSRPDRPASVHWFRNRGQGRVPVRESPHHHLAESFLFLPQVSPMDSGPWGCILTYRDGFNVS

T5: human LAG-3-ECD.D12.mFc mutant L122A (human, UniProt P18627 37-252)
T5 construct: Alanine scanning mutant; construct limits as for m26
T5 chain: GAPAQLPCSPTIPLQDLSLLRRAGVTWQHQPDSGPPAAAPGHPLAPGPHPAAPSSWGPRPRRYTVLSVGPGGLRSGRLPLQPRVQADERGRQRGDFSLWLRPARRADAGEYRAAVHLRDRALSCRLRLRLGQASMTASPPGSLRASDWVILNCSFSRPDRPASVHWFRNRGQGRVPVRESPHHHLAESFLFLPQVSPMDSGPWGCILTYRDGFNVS

T6: human LAG-3-ECD.D12.mFc mutant A139G (human, UniProt P18627 37-252)
T6 construct: construct limits as for m26
T6 chain: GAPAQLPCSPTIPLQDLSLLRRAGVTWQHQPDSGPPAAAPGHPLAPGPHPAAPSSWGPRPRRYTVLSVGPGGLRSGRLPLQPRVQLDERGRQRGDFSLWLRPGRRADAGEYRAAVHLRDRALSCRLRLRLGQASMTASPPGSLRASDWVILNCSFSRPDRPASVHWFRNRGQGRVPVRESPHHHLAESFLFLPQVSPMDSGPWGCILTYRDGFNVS

T7: human LAG-3-ECD.D12.mFc mutant D143A (human, UniProt P18627 37-252)
T7 construct: Alanine scanning mutant; construct limits as for m26
T7 chain: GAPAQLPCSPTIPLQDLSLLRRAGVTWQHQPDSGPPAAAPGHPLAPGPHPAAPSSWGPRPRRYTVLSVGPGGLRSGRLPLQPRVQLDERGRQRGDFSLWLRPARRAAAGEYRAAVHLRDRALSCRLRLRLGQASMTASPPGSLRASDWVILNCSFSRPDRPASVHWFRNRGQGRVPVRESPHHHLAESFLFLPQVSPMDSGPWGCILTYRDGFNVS

T8: human LAG-3-ECD.D12.mFc mutant L164A (human, UniProt P18627 37-252)
T8 construct: Alanine scanning mutant; construct limits as for m26
T8 chain: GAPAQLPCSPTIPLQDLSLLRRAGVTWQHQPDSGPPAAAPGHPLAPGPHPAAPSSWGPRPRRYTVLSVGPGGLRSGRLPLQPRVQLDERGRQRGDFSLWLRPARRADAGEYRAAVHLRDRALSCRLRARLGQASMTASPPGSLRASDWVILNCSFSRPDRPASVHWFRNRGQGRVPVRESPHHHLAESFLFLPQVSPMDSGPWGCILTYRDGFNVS


Columns and labels:
Experiment in all cases: ELISA, antibody coated, LAG-3 D12.mFc mutant in supernatant, normalised to control mutants
[1] = molecular target: T1, human LAG-3-ECD.D12.mFc mutant L42A
Procedure: (§1) For ELISA binding assay, the antibody 1.53.3-uAb-IgG4k or 3.40.19-uAb-hIgG4L (2 μg/mL) was coated in plates. After interacting with the supernatant that contains quantified LAG-3 mutants or human LAG-3-ECD.D12.mFc protein, HRP conjugated anti-mFc antibody (1:5000; Bethyl, USA) was added as a detection antibody. Absorbance was normalized according to the average absorbance of control mutants. After setting an additional cutoff to the binding fold change (<0.75), the final determined epitope residues were identified.

[2] = molecular target: T2, human LAG-3-ECD.D12.mFc mutant W63A
Procedure: as §1

[3] = molecular target: T3, human LAG-3-ECD.D12.mFc mutant H65A
Procedure: as §1

[4] = molecular target: T4, human LAG-3-ECD.D12.mFc mutant V101A
Procedure: as §1

[5] = molecular target: T5, human LAG-3-ECD.D12.mFc mutant L122A
Procedure: as §1

[6] = molecular target: T6, human LAG-3-ECD.D12.mFc mutant A139G
Procedure: as §1

[7] = molecular target: T7, human LAG-3-ECD.D12.mFc mutant D143A
Procedure: as §1

[8] = molecular target: T8, human LAG-3-ECD.D12.mFc mutant L164A
Procedure: as §1

Row | Fold Change [1] | Fold Change [2] | Fold Change [3] | Fold Change [4] | Fold Change [5] | Fold Change [6] | Fold Change [7] | Fold Change [8] | Binder
1 | 0.624 | 0.585 | 0.627 | 0.504 | 0.607 | 0.708 | 0.671 | 0.586 | 1.53.3-uAb-IgG4k (antibody, V domains shown, Fully human antibody from OMT rats; IgG4 kappa by its name) VH: QVQLQQWGAGLLKPSETLSLTCGVYGGSFSGYYWSWIRQPPGMGLEWIGEINHRGNTNYNPSLKSRVTISEDTSKNQFSLRLSSVTAADTAVYFCTRGEDYSDYDYYGDFWGQGTLVTVSS VL: EIVLTQSPATLSLSQGERATLSCRASQSISSYLAWYQQKPGQAPRLLIYAASNRATGIPARFSGSGSGTDFTLTISSLEPEDFAIYYCQQRSNWPLTFGGGTKVEIK
2 | 0.306 | 0.171 | 0.489 | 0.275 | 0.391 | 0.368 | 0.529 | 0.278 | 3.40.19-uAb-IgG4L (antibody, V domains shown, Fully human antibody from OMT rats; IgG4 lambda by its name; also called 3.40.19-uAb-hIgG4L) VH: QLQLQESGPGLVKPSETLSLTCTVSGDSISSTSYYWGWIRQPPGKGLEWIGSFYYSGSTYYNPSLKSRVTISVDTSKNQFSLKLNSVTAADTAVYYCARMQLWSYDVDVWGQGTTVTVSS VL: QSALTQPASVSGSPGQSITISCTGTSSDVGGYDYVAWYQQHPGKVPKLMIYDVSERPSGVSNRFSGSKSGNTASLTISGLQAEDEADYYCSSYTSTTTLVVFGGGTKLSVL
